The assay deals with T1, CCR4 endogenously expressed on CCRF-CEM cells (UniProt P51679 1-360, limits assumed).
T1 sequence (looked up): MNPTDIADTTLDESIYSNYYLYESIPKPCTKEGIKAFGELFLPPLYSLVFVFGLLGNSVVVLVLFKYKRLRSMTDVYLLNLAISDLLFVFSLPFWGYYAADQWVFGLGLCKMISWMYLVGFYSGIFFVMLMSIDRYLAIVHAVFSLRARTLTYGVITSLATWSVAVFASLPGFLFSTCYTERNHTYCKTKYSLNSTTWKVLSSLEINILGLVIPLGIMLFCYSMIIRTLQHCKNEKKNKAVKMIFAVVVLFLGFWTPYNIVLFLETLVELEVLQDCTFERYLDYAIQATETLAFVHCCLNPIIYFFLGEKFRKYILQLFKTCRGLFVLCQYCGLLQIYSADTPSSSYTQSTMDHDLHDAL
The assay is described as follows: cell-based or functional assay.

B1: mature Macaca fascicularis CCL17 (cynoCCL17), refolded from E. coli inclusion bodies (ligand)
chain: ARGTNVGRECCLKYFKGAIPLRKLKTWYQTSEDCSRDAIVFVTVQNKAICSDPNDKKVKKALKYLQSL
For B1, the “calcium flux of CCRF-CEM cells (Fluo-8 NW dye fluorescence), EC50” value turned out to be 0.665 ng/mL.

For the origin of these results see patent US20120082622A1 (Janssen / Centocor, published 2012).
